Holding throughout (assay): flow cytometry on cells
Background: In flow cytometry, cells or beads pass a laser one at a time.

Assay [1] deals with mouse TrkB expressed on REN cells (Mus musculus, UniProt P15209).
The target of assay [2] is mouse CD98hc expressed on REN cells (Mus musculus, UniProt P10852-2).
Assay [3] deals with mouse TfR-1 expressed on REN cells (Mus musculus, UniProt Q62351).
Sequence of mouse TfR-1 expressed on REN cells (Q62351 whole entry): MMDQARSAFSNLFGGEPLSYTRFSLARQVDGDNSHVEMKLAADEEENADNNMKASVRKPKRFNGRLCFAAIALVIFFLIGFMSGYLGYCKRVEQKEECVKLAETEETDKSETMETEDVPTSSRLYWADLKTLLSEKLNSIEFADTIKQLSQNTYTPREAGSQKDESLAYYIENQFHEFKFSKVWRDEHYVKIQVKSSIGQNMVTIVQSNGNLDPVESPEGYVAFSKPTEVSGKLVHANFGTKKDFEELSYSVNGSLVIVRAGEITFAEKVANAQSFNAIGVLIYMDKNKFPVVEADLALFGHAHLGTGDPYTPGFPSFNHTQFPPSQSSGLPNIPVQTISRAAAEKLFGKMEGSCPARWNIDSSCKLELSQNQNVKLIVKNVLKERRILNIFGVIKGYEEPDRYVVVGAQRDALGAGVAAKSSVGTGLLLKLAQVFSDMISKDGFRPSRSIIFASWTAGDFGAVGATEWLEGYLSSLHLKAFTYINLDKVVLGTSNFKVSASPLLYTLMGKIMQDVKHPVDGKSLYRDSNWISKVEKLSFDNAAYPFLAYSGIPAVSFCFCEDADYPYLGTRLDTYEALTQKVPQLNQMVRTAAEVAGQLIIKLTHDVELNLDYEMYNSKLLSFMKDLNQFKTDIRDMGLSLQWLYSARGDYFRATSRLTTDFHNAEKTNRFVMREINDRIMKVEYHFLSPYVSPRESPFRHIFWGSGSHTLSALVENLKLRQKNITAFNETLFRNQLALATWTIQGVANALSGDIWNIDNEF

Sequence of mouse TrkB expressed on REN cells (P15209 32-821): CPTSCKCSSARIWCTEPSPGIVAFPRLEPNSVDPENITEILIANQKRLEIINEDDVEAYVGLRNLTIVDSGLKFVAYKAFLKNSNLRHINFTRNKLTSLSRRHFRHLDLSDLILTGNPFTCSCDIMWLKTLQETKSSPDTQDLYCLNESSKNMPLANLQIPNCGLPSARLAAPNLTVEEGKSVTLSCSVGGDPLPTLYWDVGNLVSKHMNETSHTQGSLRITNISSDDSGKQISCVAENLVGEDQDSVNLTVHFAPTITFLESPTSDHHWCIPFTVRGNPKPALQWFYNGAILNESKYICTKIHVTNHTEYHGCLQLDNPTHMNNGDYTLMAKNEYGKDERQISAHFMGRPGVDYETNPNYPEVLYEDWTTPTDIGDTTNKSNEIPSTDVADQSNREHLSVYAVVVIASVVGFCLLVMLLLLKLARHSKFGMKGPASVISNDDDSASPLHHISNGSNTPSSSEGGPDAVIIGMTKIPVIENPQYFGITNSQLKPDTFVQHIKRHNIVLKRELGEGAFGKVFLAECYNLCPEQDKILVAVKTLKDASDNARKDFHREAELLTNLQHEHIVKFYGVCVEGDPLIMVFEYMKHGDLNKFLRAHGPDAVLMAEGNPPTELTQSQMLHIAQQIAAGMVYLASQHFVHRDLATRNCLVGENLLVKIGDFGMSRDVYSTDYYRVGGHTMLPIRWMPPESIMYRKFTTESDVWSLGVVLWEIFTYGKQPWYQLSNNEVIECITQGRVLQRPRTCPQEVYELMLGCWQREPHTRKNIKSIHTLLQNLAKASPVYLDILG

B1: 29D7 (TrkB-IgG) (antibody, V domains shown)
VH: EVQLVESGGGLVQPGGSLRLSCAASGYSFTAYFMNWVRQAPGKGLEWVARINPNNGDTFYTQKFKGRFTISRDNAKNSLYLQMNSLRAEDTAVYYCARRDYFGAMDYWGQGTLVTVSS
VL: DIQMTQSPSSLSASVGDRVTITCRASQTISNNLHWYQQKPGKAPKLLIKSASLAISGVPSRFSGSGSGTDFTLTISSLQPEDFATYYCQQSNSWPNTFGGGTKVEIK
On to B1, for which the binding result in assay [1] is “binds”.

B2: CD98hc IgG (antibody, V domains shown)
VH: EVQLVESGGGLVQPGRSLKLSCAASGFTFSDYYMAWVRQAPKKGLEWVASISYEGSSIYYGDSVKGRVTISRDNAKSTLYLQMNSLRSEDTATYYCARRGYYGYKPFDYWGQGVMVTVSS
VL: DIQMTQSPASLSASVGETVTIECRASEDIYNGLAWYQQKPGKSPQLLIYNIDNLHTGVPSRFSGSGSGTQYSLKINSLQSEDVASYFCQQYYTYAYTFGAGTKLELK
What is called EC50 is the concentration giving half of the maximal effect. Read a high EC50 as weaker potency. B2: the EC50 in assay [2] stood at 1.9 nM.

B3: TfR-1 IgG (clone 8D3) (antibody, V domains shown)
VH: EVQLVESGGGLVQPGNSLTLSCVASGFTFSNYGMHWIRQAPKKGLEWIAMIYYDSSKMNYADTVKGRFTISRDNSKNTLYLEMNSLRSEDTAMYYCAVPTSHYVVDVWGQGVSVTVSS
VL: DIQMTQSPASLSASLEEIVTITCQASQDIGNWLAWYQQKPGKSPQLLIYGATSLADGVPSRFSGSRSGTQFSLKISRVQVEDIGIYYCLQAYNTPWTFGGGTKLELK
Take B3: the EC50 in assay [3] came out at 3.1 nM.

These data come from article PMC10922565 (Cell chemical biology, 2023).
